Measured values published in IntAct's records for PubMed 23454188.

Molecular target: gima7_human GIMAP7 (UniProt Q8NHV1)
Sequence (Q8NHV1 whole entry): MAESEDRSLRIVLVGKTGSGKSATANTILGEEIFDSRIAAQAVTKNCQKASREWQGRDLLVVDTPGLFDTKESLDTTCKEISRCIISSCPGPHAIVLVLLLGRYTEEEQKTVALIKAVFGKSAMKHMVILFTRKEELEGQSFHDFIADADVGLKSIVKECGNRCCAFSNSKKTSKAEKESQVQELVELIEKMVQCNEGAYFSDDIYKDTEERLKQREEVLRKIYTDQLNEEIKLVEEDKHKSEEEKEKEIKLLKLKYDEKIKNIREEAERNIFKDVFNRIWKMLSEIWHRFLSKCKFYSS

Chain of GTPase IMAP family member 2 (Homo sapiens), Q9UG22 R117D (Q9UG22 whole entry R117D): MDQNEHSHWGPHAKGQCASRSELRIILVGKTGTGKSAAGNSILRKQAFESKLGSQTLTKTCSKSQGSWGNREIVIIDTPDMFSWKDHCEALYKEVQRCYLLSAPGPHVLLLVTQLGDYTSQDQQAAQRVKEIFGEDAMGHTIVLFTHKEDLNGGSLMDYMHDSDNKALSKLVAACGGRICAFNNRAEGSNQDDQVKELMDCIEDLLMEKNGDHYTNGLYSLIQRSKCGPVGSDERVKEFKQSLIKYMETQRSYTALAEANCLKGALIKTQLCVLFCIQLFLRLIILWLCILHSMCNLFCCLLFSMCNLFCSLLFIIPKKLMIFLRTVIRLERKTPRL
Chain of GTPase IMAP family member 2 (Homo sapiens), Q9UG22 S54A (Q9UG22 whole entry S54A): as the sequence (Q9UG22 whole entry R117D) above, with S54A, D117R counted along it

**Q.** With “GTPase IMAP family member 2 (Homo sapiens), Q9UG22 R117D” as the substance, how does the “effect of a mutation on the interaction” value read?
**A.** The value was “disrupting interaction strength”.

**Q.** How did the “effect of a mutation on the interaction” value turn out when “GTPase IMAP family member 2 (Homo sapiens), Q9UG22 S54A” was run?
**A.** The value was “disrupting interaction strength”.
